The source of these data is publication PMC5003356.

pKd: −log10 of the molar value.

For the first data set, the target named is T1, P54nrb-HIS (UniProt Q15233).
T1 sequence: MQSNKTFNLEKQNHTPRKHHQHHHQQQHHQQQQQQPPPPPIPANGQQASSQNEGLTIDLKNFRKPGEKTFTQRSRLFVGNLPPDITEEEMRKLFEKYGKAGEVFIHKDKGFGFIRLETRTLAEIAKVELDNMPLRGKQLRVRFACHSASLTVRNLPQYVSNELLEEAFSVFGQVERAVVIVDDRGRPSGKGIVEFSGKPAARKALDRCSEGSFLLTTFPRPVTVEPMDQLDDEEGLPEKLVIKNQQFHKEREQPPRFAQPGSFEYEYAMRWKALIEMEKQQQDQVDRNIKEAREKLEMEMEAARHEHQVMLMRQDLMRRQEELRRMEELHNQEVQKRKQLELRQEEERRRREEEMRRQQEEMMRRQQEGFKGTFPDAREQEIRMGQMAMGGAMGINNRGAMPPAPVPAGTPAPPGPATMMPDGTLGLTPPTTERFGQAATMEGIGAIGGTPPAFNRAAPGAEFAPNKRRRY
Put plainly: competition FP. The note with it: 3-10-3 cEt gap-mer; BRET: 1X binding buffer (0.1 M potassium acetate, 20 mM Tris pH 7.5, 1 mM EDTA, 0.01% NP-40), room temperature, 15 min; FP in the same buffer; c-Jun in OptiMEM …. (In general: In BRET a luciferase serves as donor, and the signal depends on an acceptor being close.)
A word on the pKd: it is the negative decadic logarithm of the Kd, by convention in mol/L. Lower therefore signals a high Kd. In turn, AACATGTCTGCCAGGG [660956] had a pKd of 7.48. ACCCTGCCACGATGTA [660992]: the pKd is 7.02. In turn, CCACTGCGCAGGCCAG [660935] gave a pKd of 6.47. Same read-out and setting: then CCAGCGGGTGGACTGT [660923], with 7.42; and CCCTCCCTCCCGCTAG [661121], with 7.71; and CTGGGAACTGGTCACC [660899], with 6.93. On to CTTCTAGCCACTGGCT [661010], for which the pKd was 6.49. On the same count and under the same terms, then GGGAGGAGGACAGCTC [660908], with 8.34; and GTTAAGAAGGCTGTCC [661073], with 6.59.

With TCAGTCATGGTATAAA [661115], the negative logarithm of the Kd (pKd) is 7.06. The same measure, in the same setting: the value for TCCACAGAGCGGACTG [660965] was 6.51.

TGAGAAGATCTCCCGG [661103] had a pKd of 7.47. This pKd lies 0.96 log units higher than the previous one.

The target of another data set is T2, NLuc-La dR1/R2 internal_change (UniProt P05455).
T2 sequence: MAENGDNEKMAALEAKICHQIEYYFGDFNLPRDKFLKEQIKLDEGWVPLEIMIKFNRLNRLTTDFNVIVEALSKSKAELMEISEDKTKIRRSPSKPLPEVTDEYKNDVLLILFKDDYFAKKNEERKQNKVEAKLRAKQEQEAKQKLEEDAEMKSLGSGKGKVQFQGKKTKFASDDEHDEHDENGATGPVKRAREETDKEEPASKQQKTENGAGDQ
Description: BRET. The note with it: PS; 5-10-5 (S)-cEt gap-mer; BRET: 1X binding buffer (0.1 M potassium acetate, 20 mM Tris pH 7.5, 1 mM EDTA, 0.01% NP-40), room temperature, 15 min; FP in the same buffer; c-Jun in OptiMEM ….
For the sequence “CTGCTAGCCTCTGGATTTGA [766636 cEt gap-mer]”, the binding signal (fold lower affinity than full length) came to 50.
